The record followed here is paper PMC11194501.

In assay [1] the target is MBP-Cep63N (fusion of MBP and the N-terminal fragment of Cep63) (human) (UniProt Q96MT8). The experiment in a line: ITC. (ITC needs no label: the signal is the heat of the interaction.)
In assay [2] the target is Cep57N (Cep57 residues 56 to 251) (human) (UniProt Q86XR8). As to the kind of experiment: ITC.
For assay [3], the target named is Cep57S-KR (Cep57S with six Lys and Arg residues of the K/R motif replaced by Ala) (human) (UniProt Q86XR8). The experiment in a line: pull-down; His-tagged Cep57S held on a Ni-NTA spin column, 0.1 mg α/β-tubulin added, 4 °C; 1X PBS pH 8.0, 1 mM 2-mercaptoethanol, 20 mM imidazole, 0.1% Triton X100, 10% glycerol; eluted with 400 mM imidazole, SDS-PAGE.

Substance “Cep57N (Cep57 residues 56 to 251) (from UniProt Q86XR8 56-251) (domain or fragment)” had a Kd in assay [1] of 600 nM.
Take “MBP-Cep63N (fusion of MBP and the N-terminal fragment of Cep63) (from UniProt Q96MT8-2 1-541) (domain or fragment)”: in assay [2], the Kd came to 500 nM and the stoichiometry N was 0.6.
Turning to “α/β-tubulin (from UniProt P02550 1-451; P02554 1-445) (complex)”, the reduction of tubulin binding against Cep57S in assay [3] is 65%.

A word on the Kd: it is the concentration at which binding is half-saturated. Low values mean a tighter complex, high ones a looser complex. Usually stoichiometry N stands for a count of units in the complex or per binding partner.
